Data on 84 variants can be found in the RNAGym collection of RNA variant scans (doi:10.1101/gr.219683.116).

To fix the notation:
B1: mRNA-splicing (parent)
chain: AGUUGCUGCUGGGAGCUCCAGCACAGUGAAAUGGACAGAAGGGCAGAGCAA

Variants of B1 are the subject of this data set. The experiment in a line: exon inclusion enrichment index; higher = more inclusion; WT1 exon 5 minigene, HEK293.
With G5C C6A U7C G8A U10A G42U G43C, the “exon inclusion enrichment index” value came out at 0.0644. In the case of G5A C6U U7A G8U C9A U27G G28A it was 0.12; in that of G5A U7C G8A U10C U17A C18U, 1.52; in that of G5C C6U G8C C9U U10C U17A C18G, 1.83.

Turning to G5U G8U C9U A35G, the “exon inclusion enrichment index” value was determined as 0.0347.

G5C C6A U7C G8A U10A C18A C19A: the “exon inclusion enrichment index” value was found to be 0.0025. Under G5C C6G U7C U10C G13A A14G stands 3.3; under G5C C6A U7C G8A U10A A31U, 0.094; under G5U G8U C9U G42U G43C, 0.0971.

On to G5C C6A U7C G8A U10A A14U G15U, for which the “exon inclusion enrichment index” value amounted to 0.0233. For the variant G5C C6A U7C G8A U10A G21A, the “exon inclusion enrichment index” value was determined as 0.0465. Under G5C C6A U7C G8A U10A G11C G12C stands 0.382; under C6A U7A C9A U10A A20G G21U, 0.779. Under U3A U4G G5C C6U G8C C9U U10C stands 0.155. Under G5A C6U U7A G8U C9A G34U stands 0.00388. For the variant U4A G5U, the “exon inclusion enrichment index” value is 0.0569.

For G5C C6U G8C C9U U10C A31G U32G, the “exon inclusion enrichment index” value came to 1.04. In the case of G5C C6U G8C C9U U10C A45C G46U it was 0.726. Regarding G5A U7C G8A U10C G12A G13A, the “exon inclusion enrichment index” value amounted to 0.689. Under G5U G8U C9U A39C A40U stands 0.141.

For G11C, the “exon inclusion enrichment index” value was 2.05. In the case of G5A C6G U7G C9A C44A it was 0.00167; in that of G5U G8U C9U C22G A23G, 0.0211.

For U4C G5C C6A U7A C9A U10A, the “exon inclusion enrichment index” value came to 1.37. Take G5C C6U G8C: the “exon inclusion enrichment index” value was found to be 1.8. Under G5A U7C G8A U10C G11A G12U stands 0.486; under G2C G5A C6G U7G C9A, 0.0065. In the case of C6A U7C C9A U10C A31C U32C it was 4.42; in that of G5A C6U U7A G8U C9A A29G A30U, 0.00704. Under U4A C6G U7G C9A stands 0.00639. C6A U7A C9A U10A A30U A31G: the “exon inclusion enrichment index” value was found to be 0.653.

On to A30C, for which the “exon inclusion enrichment index” value was determined as 0.184. In the case of G5C C6A U7C G8A U10A G41U G42C it was 0.369; in that of G5A C6U U7A G8U C9A G21C C22G, 0.197; in that of G5C C6U G8C C9U U10C C19A A20G, 0.213. Under G5A U7C G8A U10C U32G G33C stands 2.16; under G5C C6G U7C U10C C24U A25G, 4.57; under G5A C6U U7A G8U C9A G46U A47G, 0.0512.

For G5C C6A U7C G8A U10A U17G C18G, the “exon inclusion enrichment index” value was 0.159. Under G5C C6U G8C C9U U10C G34U A35C stands 0.683; under G5A U7C G8A U10C U32A G33A, 1.05. In the case of G5C C6U G8C C9U U10C G15A it was 0.641; in that of G5A C6G U7G C9A U17G, 0.00284; in that of G43C C44A, 0.932. In the case of G5A C6U U7A G8U C9A G26U U27C it was 0.536. With C6A U7C C9A U10C G15C C16G, the “exon inclusion enrichment index” value was 3.44.

For the variant G5A C6G U7G C9A G42U G43C, the “exon inclusion enrichment index” value was 0.0126. Under G5C C6G U7C U10C C16U U17G stands 3.07; under G5A C6G U7G C9A G33C G34A, 0.000739.

Consider U3G U4A C6A U7C C9A U10C, for which the “exon inclusion enrichment index” value was found to be 1.52. For C6A U7C C9A U10C U32C G33C, the “exon inclusion enrichment index” value was 4. Take C6A U7C C9A U10C U32C G33A: the “exon inclusion enrichment index” value was determined as 2.3. Regarding G5A C6G U7G C9A A14C G15C, the “exon inclusion enrichment index” value amounted to 0.000633. As to G5C C6U G8C C9U U10C A37C G38C, the “exon inclusion enrichment index” value came out at 1.95. For the variant G46C, the “exon inclusion enrichment index” value is 0.155. In the case of G5C C6G U7C U10C G21U it was 2.48. In the case of G5U G8U C9U A31U it was 0.15; in that of C6A U7A C9A U10A G13U A14C, 1.14.

Take G5A C6U U7A G8C C9A: the “exon inclusion enrichment index” value was found to be 0.286. In the case of G5C C6A U7C G8A U10C G11U it was 1.71; in that of G5A U7C G8A U10C A40U G41U, 1.26. Under G5A U7C G8A U10C G21A stands 1.67. Take G5A C6G U7G C9A G11C G12U: the “exon inclusion enrichment index” value was 0.00113.

Regarding G5U G8U, the “exon inclusion enrichment index” value turned out to be 1.33. In the case of C6A U7C G8U C9A U10C it was 2.22. Under U27G G28A stands 0.354. On to C6A U7A C9A U10A A20G, for which the “exon inclusion enrichment index” value was found to be 1.05. In the case of G5A C6G U7G C9A A30U A31U it was 0.00264; in that of C6A U7C C9A U10C G11U G12C, 1.94.

Turning to U4G G5U, the “exon inclusion enrichment index” value turned out to be 0.105. In the case of G5U G8U C9U U17G it was 0.13; in that of G5C C6G U7C G8U C9A U10C, 2.74; in that of G5U G8U C9U G28C, 0.0778.

On to G5C C6A U7C G8A U10A C24G A25C, for which the “exon inclusion enrichment index” value was 0.71. With G5U C6A G8U C9U, the “exon inclusion enrichment index” value amounted to 0.0752. In the case of C6A U7A C9A U10A C16U U17C it was 0.225; in that of C6A U7C C9A U10C A35C C36A, 2.28; in that of G5C C6G U7C U10C A29U A30C, 3.05. In the case of G5C C6G U7G G8C U10C it was 1.57; in that of C19A A20C, 1.81; in that of C9G U10C, 0.22. In the case of G5C C6U G8C C9U U10C C18A C19A, the “exon inclusion enrichment index” value is 0.438. As to G5A C6U U7A G8U C9A A39U A40U, the “exon inclusion enrichment index” value stood at 0.0161. In the case of C6A U7A C9A U10A A47U G48U it was 0.748.
